Test results taken from article PMC5357909, “Structural and functional studies of a noncanonical Dicer from Entamoeba histolytica” (Scientific Reports, 2017).

Legend:
EhRNaseIII194 [1] = target: T1, EhRNaseIII194 (Entamoeba histolytica, UniProt C4LU64 2-194); experiment: EMSA; 5 mM Mg2+; binds at 1e-4 M; EMSA (1x): 30 mM Tris-HCl pH 7.5, 30 mM NaCl, 5 mM MgCl2, 1 mM DTT, 0.1 mM EDTA, 5% glycerol; room temperature 10 min then ice 20 min; 6% native PAGE, 0.5x TBE; details: protein: recombinant; tags: His-Sumo removed by Ulp1; chain copies: 2; blunt, 70 bp
T1 sequence: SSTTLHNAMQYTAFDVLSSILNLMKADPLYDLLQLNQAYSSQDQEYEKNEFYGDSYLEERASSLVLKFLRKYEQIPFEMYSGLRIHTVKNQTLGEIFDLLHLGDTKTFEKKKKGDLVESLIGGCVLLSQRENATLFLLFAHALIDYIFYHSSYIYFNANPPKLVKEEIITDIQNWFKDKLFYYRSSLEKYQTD

[2] = target: T2, EhRNaseIII256 (full-length EhRNaseIII) (Entamoeba histolytica, UniProt C4LU64 2-256); experiment: EMSA; 5 mM Mg2+; up to 1e-3 M; EMSA (1x): 30 mM Tris-HCl pH 7.5, 30 mM NaCl, 5 mM MgCl2, 1 mM DTT, 0.1 mM EDTA, 5% glycerol; room temperature 10 min then ice 20 min; 6% native PAGE, 0.5x TBE; details: protein: recombinant, tags: His-Sumo removed by Ulp1, chain copies: 2, blunt
T2 sequence: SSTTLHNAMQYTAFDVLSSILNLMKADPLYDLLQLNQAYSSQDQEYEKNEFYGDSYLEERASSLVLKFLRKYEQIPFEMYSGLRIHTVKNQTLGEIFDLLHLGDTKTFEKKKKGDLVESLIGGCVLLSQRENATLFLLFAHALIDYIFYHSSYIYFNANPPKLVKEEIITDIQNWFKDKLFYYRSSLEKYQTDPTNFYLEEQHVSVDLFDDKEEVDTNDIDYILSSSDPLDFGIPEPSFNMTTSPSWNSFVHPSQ

EhRNaseIII229 [3] = target: T3, EhRNaseIII229 (Entamoeba histolytica, UniProt C4LU64 2-229); experiment: as above; details: protein: recombinant, tags: His-Sumo removed by Ulp1, chain copies: 2, blunt
T3 sequence: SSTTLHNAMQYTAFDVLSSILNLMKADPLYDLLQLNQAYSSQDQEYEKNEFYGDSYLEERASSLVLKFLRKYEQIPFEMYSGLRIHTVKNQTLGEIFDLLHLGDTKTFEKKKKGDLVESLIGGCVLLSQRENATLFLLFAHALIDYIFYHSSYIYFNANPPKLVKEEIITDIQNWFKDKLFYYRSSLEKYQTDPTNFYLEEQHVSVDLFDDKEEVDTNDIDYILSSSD

[4] = target: the molecule itself; experiment: crystal structure; SeMet-EhRNaseIII194, hanging drop, 16 °C, 1.26 M (NH4)2SO4, 0.1 M Hepes pH 7.8; P212121, SAD phasing, 2.10 Å
EhRNaseIII229 [5] = target: T3, EhRNaseIII229; experiment: EMSA; 5 mM Mg2+; almost complete shift at 3e-4 M; EMSA (1x): 30 mM Tris-HCl pH 7.5, 30 mM NaCl, 5 mM MgCl2, 1 mM DTT, 0.1 mM EDTA, 5% glycerol; room temperature 10 min then ice 20 min; 6% native PAGE, 0.5x TBE; details: protein: recombinant; tags: His-Sumo removed by Ulp1; chain copies: 2; blunt, 100 bp
EhRNaseIII194 [6] = target: T1, EhRNaseIII194; experiment: EMSA; 5 mM Mg2+; shift at 5e-5 M; EMSA (1x): 30 mM Tris-HCl pH 7.5, 30 mM NaCl, 5 mM MgCl2, 1 mM DTT, 0.1 mM EDTA, 5% glycerol; room temperature 10 min then ice 20 min; 6% native PAGE, 0.5x TBE; details: protein: recombinant; tags: His-Sumo removed by Ulp1; chain copies: 2; blunt, 100 bp
[7] = target: T2, EhRNaseIII256 (full-length EhRNaseIII); experiment: EMSA; 5 mM Mg2+; EMSA (1x): 30 mM Tris-HCl pH 7.5, 30 mM NaCl, 5 mM MgCl2, 1 mM DTT, 0.1 mM EDTA, 5% glycerol; room temperature 10 min then ice 20 min; 6% native PAGE, 0.5x TBE; details: protein: recombinant, tags: His-Sumo removed by Ulp1, chain copies: 2, blunt
[8] = target: the molecule itself; experiment: crystal structure; EhRNaseIII229, sitting drop, 16 °C, 1.6 M (NH4)2SO4, 0.02 M MgCl2, 0.05 M Tris-HCl pH 7.5; apo (1.90 Å) and soaked with 10 mM MnCl2 (2.05 Å); P212121, molecular replacement
EhRNaseIII229 [9] = target: T3, EhRNaseIII229; experiment: EMSA; 5 mM Mg2+; EMSA (1x): 30 mM Tris-HCl pH 7.5, 30 mM NaCl, 5 mM MgCl2, 1 mM DTT, 0.1 mM EDTA, 5% glycerol; room temperature 10 min then ice 20 min; 6% native PAGE, 0.5x TBE; details: protein: recombinant; tags: His-Sumo removed by Ulp1; chain copies: 2; blunt, 25 bp
EhRNaseIII194 [10] = target: T1, EhRNaseIII194; experiment: EMSA; 5 mM Mg2+; up to 1e-3 M; EMSA (1x): 30 mM Tris-HCl pH 7.5, 30 mM NaCl, 5 mM MgCl2, 1 mM DTT, 0.1 mM EDTA, 5% glycerol; room temperature 10 min then ice 20 min; 6% native PAGE, 0.5x TBE; details: protein: recombinant; tags: His-Sumo removed by Ulp1; chain copies: 2; blunt, 25 bp

B1: RNA70 (dsRNA)
RNA 1: GGGAGAAACGCGGCCUCUUCUUAUUUAUGGCGACAUGUUGUGCCACAUAUUGAGCCAGUAGCGCUCUCCC
RNA 2: GGGAGAGCGCUACUGGCUCAAUAUGUGGCACAACAUGUCGCCAUAAAUAAGAAGAGGCCGCGUUUCUCCC
**Q.** Which results are given for B1?
**A.** binding result (EhRNaseIII194 [1]): binds; binding result ([2]; 70 bp): no binding; binding result (EhRNaseIII229 [3]; 70 bp): no binding

B2: SeMet-EhRNaseIII194 (selenomethionine-labeled EhRNaseIII, aa 1-194) (domain or fragment, Entamoeba histolytica, UniProt C4LU64 1-194, looked up)
chain: MSSTTLHNAMQYTAFDVLSSILNLMKADPLYDLLQLNQAYSSQDQEYEKNEFYGDSYLEERASSLVLKFLRKYEQIPFEMYSGLRIHTVKNQTLGEIFDLLHLGDTKTFEKKKKGDLVESLIGGCVLLSQRENATLFLLFAHALIDYIFYHSSYIYFNANPPKLVKEEIITDIQNWFKDKLFYYRSSLEKYQTD
modifications: selenomethionine substituted (Se-Met) for methionine
notes: EhRNaseIII, the only RNaseIII protein of Entamoeba histolytica (256 aa), aa 1-194 (CTR truncated); Cloned from E. histolytica cDNA into pET28-Sumo; also called EhRNase194; SeMet-RNaseIII194; source: E. coli BL21(DE3) in M9 medium with Se-Met, purified (HisTrap, Ulp1 digestion, HisTrap, HiTrap Q, Superdex 75); not shown: His-Sumo, N-terminal, cleaved
**Q.** How did the “stoichiometry N” value [4] turn out when B2 was run?
**A.** 2

B3: RNA50 (dsRNA)
RNA 1: GGGAGAAACGCGGCCUCUUCUUAUUUAUGGCGACAUGUUGUGCCUCUCCC
RNA 2: GGGAGAGGCACAACAUGUCGCCAUAAAUAAGAAGAGGCCGCGUUUCUCCC
**Q.** Does B3 bind ([2]; 50 bp)?
**A.** no binding

**Q.** Does B3 bind (EhRNaseIII229 [3]; 50 bp)?
**A.** no binding

B4: RNA100 (dsRNA)
RNA 1: GGGAGAAACGCGGCCUCUUCUUAUUUAUGGCGACAUGUUGUGCCACAUAUUGAGCCAGUAGCGCGGUGUAUUAUACCAGACCUUAUUGGUAUGGUCUCCC
RNA 2: GGGAGACCAUACCAAUAAGGUCUGGUAUAAUACACCGCGCUACUGGCUCAAUAUGUGGCACAACAUGUCGCCAUAAAUAAGAAGAGGCCGCGUUUCUCCC
**Q.** Which binding signal (EhRNaseIII229 [5]) does the source give for B4 here?
**A.** > 2 fold affinity vs EhRNaseIII256 (at least)

**Q.** And the binding signal (EhRNaseIII194 [6])?
**A.** ~6 fold affinity vs EhRNaseIII256 (2-fold vs EhRNaseIII229)

**Q.** And the Kd ([7]; 100 bp)?
**A.** ~600 µM

B5: EhRNaseIII229 (EhRNaseIII aa 1-229) (domain or fragment, Entamoeba histolytica, UniProt C4LU64 1-229, looked up)
chain: MSSTTLHNAMQYTAFDVLSSILNLMKADPLYDLLQLNQAYSSQDQEYEKNEFYGDSYLEERASSLVLKFLRKYEQIPFEMYSGLRIHTVKNQTLGEIFDLLHLGDTKTFEKKKKGDLVESLIGGCVLLSQRENATLFLLFAHALIDYIFYHSSYIYFNANPPKLVKEEIITDIQNWFKDKLFYYRSSLEKYQTDPTNFYLEEQHVSVDLFDDKEEVDTNDIDYILSSSD
notes: EhRNaseIII, the only RNaseIII protein of Entamoeba histolytica (256 aa), aa 1-229 (CTR truncated); Cloned from E. histolytica cDNA into pET28-Sumo; Residues after about 195 were disordered in the crystal; also called EhRNase229; source: E. coli BL21(DE3), purified (HisTrap, Ulp1 digestion, HisTrap, HiTrap Q, Superdex 75); not shown: His-Sumo, N-terminal, cleaved
**Q.** With B5 as the binder, how does the “stoichiometry N” value [8] read?
**A.** 2

B6: RNA25 (dsRNA)
RNA 1: GGGAGAAACGCGGCCUCUUUCUCCC
RNA 2: GGGAGAAAGAGGCCGCGUUUCUCCC
**Q.** Does B6 bind ([7]; 25 bp)?
**A.** no binding

**Q.** Does B6 bind (EhRNaseIII229 [9])?
**A.** no binding

**Q.** Does B6 bind (EhRNaseIII194 [10])?
**A.** no binding
